Test results taken from publication PMC9140497.

Molecular target: α2β1 integrin (human (endogenous in HT1080)) (UniProt P17301)
Sequence of UniProt P17301 (P17301 30-1181, chain 1 of 2): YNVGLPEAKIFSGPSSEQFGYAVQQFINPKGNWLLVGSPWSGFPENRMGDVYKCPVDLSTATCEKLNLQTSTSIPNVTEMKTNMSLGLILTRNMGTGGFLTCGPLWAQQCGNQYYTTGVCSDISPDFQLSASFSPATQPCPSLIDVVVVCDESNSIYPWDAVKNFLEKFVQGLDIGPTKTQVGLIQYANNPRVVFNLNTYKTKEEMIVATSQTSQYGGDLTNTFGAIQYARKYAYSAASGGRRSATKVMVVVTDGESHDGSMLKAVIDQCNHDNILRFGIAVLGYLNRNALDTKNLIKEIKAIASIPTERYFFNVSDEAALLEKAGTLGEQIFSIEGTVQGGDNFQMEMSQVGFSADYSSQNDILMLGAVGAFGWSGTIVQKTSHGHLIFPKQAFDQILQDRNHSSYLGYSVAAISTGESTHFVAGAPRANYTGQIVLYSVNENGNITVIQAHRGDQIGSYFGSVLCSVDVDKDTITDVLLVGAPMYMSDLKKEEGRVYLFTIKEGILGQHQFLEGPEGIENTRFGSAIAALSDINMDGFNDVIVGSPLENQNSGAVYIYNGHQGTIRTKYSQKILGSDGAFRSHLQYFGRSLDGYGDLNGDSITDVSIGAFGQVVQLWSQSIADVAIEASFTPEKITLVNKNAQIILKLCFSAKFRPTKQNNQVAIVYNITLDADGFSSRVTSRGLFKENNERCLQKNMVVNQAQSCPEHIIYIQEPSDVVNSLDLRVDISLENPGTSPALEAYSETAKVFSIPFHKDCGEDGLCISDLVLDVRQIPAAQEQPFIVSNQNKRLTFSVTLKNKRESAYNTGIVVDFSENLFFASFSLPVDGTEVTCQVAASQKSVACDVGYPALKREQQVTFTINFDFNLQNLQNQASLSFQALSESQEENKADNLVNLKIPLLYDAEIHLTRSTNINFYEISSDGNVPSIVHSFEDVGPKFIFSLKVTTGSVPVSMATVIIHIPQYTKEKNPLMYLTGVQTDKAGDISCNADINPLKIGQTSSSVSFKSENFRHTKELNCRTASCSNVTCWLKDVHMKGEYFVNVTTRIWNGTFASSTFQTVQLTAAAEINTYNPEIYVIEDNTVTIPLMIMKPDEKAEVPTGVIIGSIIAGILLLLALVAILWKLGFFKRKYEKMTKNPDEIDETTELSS
Sequence of UniProt P17301 (P05556 21-798, chain 2 of 2, further chain): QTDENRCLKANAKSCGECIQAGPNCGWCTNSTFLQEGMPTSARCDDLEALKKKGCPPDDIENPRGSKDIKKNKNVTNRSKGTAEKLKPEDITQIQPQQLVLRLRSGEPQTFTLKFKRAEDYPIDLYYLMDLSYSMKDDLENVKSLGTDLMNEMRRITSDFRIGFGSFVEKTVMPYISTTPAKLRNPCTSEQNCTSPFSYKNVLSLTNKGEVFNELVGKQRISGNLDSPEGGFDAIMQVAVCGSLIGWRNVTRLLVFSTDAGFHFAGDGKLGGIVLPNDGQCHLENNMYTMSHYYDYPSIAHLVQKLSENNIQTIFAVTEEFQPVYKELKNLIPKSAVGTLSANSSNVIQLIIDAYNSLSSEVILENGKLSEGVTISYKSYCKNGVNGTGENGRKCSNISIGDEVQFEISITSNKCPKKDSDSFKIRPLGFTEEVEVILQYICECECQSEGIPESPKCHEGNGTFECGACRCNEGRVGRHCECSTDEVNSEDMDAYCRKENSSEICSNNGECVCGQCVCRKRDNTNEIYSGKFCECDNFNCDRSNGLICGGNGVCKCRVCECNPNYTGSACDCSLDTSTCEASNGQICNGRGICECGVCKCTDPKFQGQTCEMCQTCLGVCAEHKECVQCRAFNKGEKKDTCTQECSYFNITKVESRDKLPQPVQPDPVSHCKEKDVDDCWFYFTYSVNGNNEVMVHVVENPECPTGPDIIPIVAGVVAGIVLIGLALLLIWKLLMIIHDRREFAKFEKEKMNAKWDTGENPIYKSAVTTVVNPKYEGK

adhesion of HT1080 cells pre-incubated with 10 μg/mL mAb13 (anti-β1) on Fmoc-FF/S/GFOGER hydrogel | adhesion of HT1080 cells pre-incubated with 10 μg/mL mAb13 (anti-β1) on RTC-modified hydrogel | Substance
23% | – | GFOGER peptide
– | 15% | Rat Tail Collagen (from UniProt P02454 152-1207; P02466 86-1125) (natural protein)
